Data reported in patent publication US20230105667A1, “MESENCHYMAL STROMAL CELLS AND EXTRACELLULAR VESICLES FOR TREATING VIRAL INFECTIONS, INFLAMMATION, AND TISSUE FIBROSIS” (EXOSTEM BIOTEC LTD., priority 2020, published 2023).

Biological target: human ACE2 on cells (human lung epithelial cells expressing ACE2 (human) (UniProt Q9BYF1))
Experiment: cell-based or functional assay

Chain of UniProt Q9BYF1 (Q9BYF1 18-805 limits assumed): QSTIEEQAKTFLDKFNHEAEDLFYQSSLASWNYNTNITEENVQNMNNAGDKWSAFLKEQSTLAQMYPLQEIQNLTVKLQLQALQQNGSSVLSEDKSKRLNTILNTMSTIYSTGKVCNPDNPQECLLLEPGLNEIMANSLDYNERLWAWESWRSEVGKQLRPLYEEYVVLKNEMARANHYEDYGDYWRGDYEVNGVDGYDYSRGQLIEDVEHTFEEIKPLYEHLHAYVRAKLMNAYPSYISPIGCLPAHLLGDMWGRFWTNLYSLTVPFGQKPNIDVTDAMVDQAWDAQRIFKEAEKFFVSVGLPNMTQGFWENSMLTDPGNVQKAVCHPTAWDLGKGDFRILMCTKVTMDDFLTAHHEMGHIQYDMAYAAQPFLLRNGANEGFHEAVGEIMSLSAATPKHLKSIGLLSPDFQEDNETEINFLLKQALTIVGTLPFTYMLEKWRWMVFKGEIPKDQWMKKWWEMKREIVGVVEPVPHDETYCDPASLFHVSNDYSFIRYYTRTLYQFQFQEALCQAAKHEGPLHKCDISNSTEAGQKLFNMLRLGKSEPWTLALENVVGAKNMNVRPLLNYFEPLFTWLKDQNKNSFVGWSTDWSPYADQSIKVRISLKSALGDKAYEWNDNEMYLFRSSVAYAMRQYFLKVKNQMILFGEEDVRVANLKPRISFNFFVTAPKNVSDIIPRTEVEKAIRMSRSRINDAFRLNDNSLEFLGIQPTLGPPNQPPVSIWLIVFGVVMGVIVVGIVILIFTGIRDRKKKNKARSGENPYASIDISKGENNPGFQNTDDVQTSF

“SARS-CoV-2 receptor-binding-domain (RBD) displayed on extracellular vesicles from MSCs (ligand)” was tested. Which TNFα levels in HBE cells treated with RBD recombinant protein did it give?
Its TNFα levels in HBE cells treated with RBD recombinant protein is 50%.
